T1: circularly permuted human TfR apical domain (human)
T1 construct: TfR residues 326-379 stand N-terminal to 194-296, loop 297-325 deleted; also called huTfR Apical Domain
T1 chain: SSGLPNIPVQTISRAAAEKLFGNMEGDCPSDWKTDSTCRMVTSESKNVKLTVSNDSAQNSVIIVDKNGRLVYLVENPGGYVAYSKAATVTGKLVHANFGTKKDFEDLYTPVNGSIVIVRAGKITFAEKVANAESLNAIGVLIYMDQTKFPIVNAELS

B1: Clone 4: LLB1-3 D380E bivalent, non-binding Fabs (Fc fusion)
chain: APELLGGPSVFLFPPKPKDTLMISRTPEVTCVVVDVSHEDPEVKFNWYVDGVEVHNAKTKPREEQYNSTYRVVSVLTVLHQDWLNGKEYKCKVSNKALPAPIEKTISKAKGQPREPQVYTLPPSRDELTKNQVSLTCLVKGFYPSDIAVEWRSYKPYENNYKTTPPVLDSDGSFFLYSKLTVDKSRWQQGNIFVCDVMHEALHNHYTIKKLSLSPGK
notes: bivalent; effector positive
B2: Clone 27: LLB2-10-8 monovalent, non-binding Fabs, LALAPG (Fc fusion)
chain 1: APEAAGGPSVFLFPPKPKDTLMISRTPEVTCVVVDVSHEDPEVKFNWYVDGVEVHNAKTKPREEQYNSTYRVVSVLTVLHQDWLNGKEYKCKVSNKALGAPIEKTISKAKGQPREPQVYTLPPSRDELTKNQVSLWCLVKGFYPSDIAVLWNSRFVLENNYKTTPPVLDSDGSFFLYSKLTVDKSRWQQGEIFACNVYHEALHNHYTFKNLALSPGK
chain 2: APEAAGGPSVFLFPPKPKDTLMISRTPEVTCVVVDVSHEDPEVKFNWYVDGVEVHNAKTKPREEQYNSTYRVVSVLTVLHQDWLNGKEYKCKVSNKALGAPIEKTISKAKGQPREPQVYTLPPSRDELTKNQVSLSCAVKGFYPSDIAVEWESNGQPENNYKTTPPVLDSDGSFFLVSKLTVDKSRWQQGNVFSCSVMHEALHNHYTQKSLSLSPGK
notes: effector negative (LALAPG)
B3: Clone 1: LLB2-10-8 bivalent, BACE1 Fabs (Fc fusion)
chain: B2 chain 1 with A4L, A5L, G99P, W136T
notes: bivalent; effector positive
B4: human CD98hc (receptor)
chain: CRELPAQKWWHTGALYRIGDLQAFQGHGAGNLAGLKGRLDYLSSLKVKGLVLGPIHKNQKDDVAQTDLLQIDPNFGSKEDFDSLLQSAKKKSIRVILDLTPNYRGENSWFSTQVDTVATKVKDALEFWLQAGVDGFQVRDIENLKDASSFLAEWQNITKGFSEDRLLIAGTNSSDLQQILSLLESNKDLLLTSSYLSDSGSTGEHTKSLVTQYLNATGNRWCSWSLSQARLLTSFLPAQLLRLYQLMLFTLPGTPVFSYGDEIGLDAAALPGQPMEAPVMLWDESSFPDIPGAVSANMTVKGQSEDPGSLLSLFRRLSDQRSKERSLLHGDFHAFSAGPGLFSYIRHWDQNERFLVVLNFGDVGLSAGLQASDLPASASLPAKADLLLSTQPGREEGSPLELERLKLEPHEGLLLRFPYAA
notes: also called huCD98hc; CD98 heavy chain
B5: 6.5.11.1 bivalent (Fc fusion)
chain: APELLGGPSVFLFPPKPKDTLMISRTPEVTCVVVDVSHEDPEVKFNWYVDGVEVHNAKTKPREEQYNSTYRVVSVLTVLHQDWLNGKEYKCKVSNKALPAPIEKTISKAKGQPREPQVYTLPPSRDELTKNQVSLTCLVKGFYPSDIAVNWFSNGQIENNYKTTPPVLDSDGSFFLYSKLTVDKSRWQQGNLFACEVMHEALHNHYTYKLLSLSPGK
notes: also called Clone 6.5.11.1 bivalent
B6: 42.2 LALA (bivalent clone 6.5.11.5.42.2 with LALA, anti-HER2 Fab) (Fc fusion)
chain: B5 chain with L4A, L5A, N150E, N154D, Q156S, I157K, N159T
B7: 6.5.11.5.42 bivalent (Fc fusion)
chain: B5 chain with L4A, L5A, N150Y, N154G, I157R
notes: both Fc with LALA
B8: 42.2 LALA LS (bivalent clone 6.5.11.5.42.2 with LALA and LS, anti-HER2 Fab) (Fc fusion)
chain: B5 chain with L4A, L5A, N150E, N154D, Q156S, I157K, N159T, M198L, N204S

Assay [1] deals with B4. Nature of the assay: affinity as listed in study design table; method not given there; Bivalent, NBF Fabs.
Assay [2] deals with B4. Kind of assay: affinity as listed in study design table; method not given there.
The target in assay [3] is B4. The assay is described as above. This is another data set of the same source.
Assay [4] deals with T2, Clone 18: LLB2-37 monovalent, non-binding Fabs (Homo sapiens (Human), UniProt P0DOX5 233-449 = IgG part; P0DOX5 233-449 = IgG part, T366W).
T2 construct: CD98hc site on the knob Fc only; effector positive
Described as above.

The target in assay [5] is T3, Clone 8: LLB2-10-6 monovalent, non-binding Fabs (Homo sapiens (Human), UniProt P0DOX5 233-449 = IgG part; P0DOX5 233-449 = IgG part, T366W).
T3 construct: CD98hc site on the knob Fc only; effector positive
Described as above.

Assay [6] addresses T3, Clone 8: LLB2-10-6 monovalent, …. The assay is described as above. This is another data set of the same source.
The target is the same in assay [7]. The description is as above. This is another data set of the same source.
Assay [8] addresses T4, Clone 13: LLB1-3-16 monovalent, non-binding Fabs (Homo sapiens (Human), UniProt P0DOX5 233-449 = IgG part; P0DOX5 233-449 = IgG part, T366W).
T4 construct: CD98hc site on the knob Fc only; effector positive
The assay is described as above.

The target of assay [9] is T3, Clone 8: LLB2-10-6 monovalent, …. The description is as above. This is another data set of the same source.
The target of assay [10] is T1, circularly permuted human TfR apical …. Nature of the assay: Biacore SPR, Fc-Fab fusion.
Assay [11] has as its target T5, TfR (Homo sapiens (Human), UniProt P02786 121-760, limits assumed).
T5 construct: also called transferrin receptor
Nature of the assay: Biacore, after low pH hold and neutralisation. Here is the method: (§1) Clone 6.5.11.5.42.2, with and without LS mutations, was assessed for low pH stability during developability assessment. The tested proteins are bivalent Fc-Fab fusion polypeptides comprising an anti-HER2 Fab domain linked to two Fc polypeptides each having the sequence of the identified clone and LALA mutations, with LS mutations or without LS mutations. An Fc control containing the anti-HER2 Fab domain linked to an Fc domain with LALA mutations and without TfR-binding sites was included for comparison.
(§2) Aliquots (100 μL) of each clone were added to wells of a 96-well plate containing 6 μL of 5% (v/v) acetic acid and mixed well. The plate was sealed and incubated at room temperature for about three (3) hours. Subsequently, 35 μL of 1 M Tris HCl (pH 7.5) was added to the samples and mixed well. The plate was sealed once again and incubated at room temperature for 24 hours. Control condition was storage in 1× PBS without any change in pH during incubation. The samples were then analyzed by Biacore for binding affinity and by size exclusion chromatography to detect intact fusion protein. FIG. 22 and Table 26 provide the results of the analyses.

The target in assay [12] is T5, TfR. Nature of the assay: Biacore, control sample kept in PBS. Here is the method:
as §1, §2

Assay [13] addresses T1, circularly permuted human TfR apical …. Nature of the assay: Biacore SPR, Fc-Fab fusion; bivalent, LALA.

Where a chain is given by its changes, count along the chain named. Names and notes keep the numbering of the source. Read-outs that look alike come from different tables or passages of the source.

The text below walks through data of patent US20250145729A1 (DENALI THERAPEUTICS, published 2025).

B1 yielded a Kd with human CD98hc [1] of 1000 nM.

B2 registered a Kd with human CD98hc [2] of 100 to 200 nM.

B3 registered a Kd with human CD98hc [3] of 100 to 200 nM.

B4: the Kd was determined as 390 nM in [4]; 260 nM in [5]; 260 nM in [6]; 230 nM in assay [7]; 32 nM in assay [8]; 260 nM in [9].

In turn, B5 displayed a Kd in assay [10] of 20000 to 40000 nM.

In the case of B6, the Kd with TfR [11] was 1180 nM; with TfR [12], 1170 nM.

B7 gave a Kd in [13] of 2000 nM.

On to B8, for which the Kd in the assay with TfR [11] is 1810 nM; with TfR [12], 1700 nM.
